Measured values from patent publication US20240174744A1 (SCIRHOM, published 2024).

Assays:
[1] = target: T1, miR2-FL-WT-T7 (mouse iRhom2 full length wild type C-terminally tagged with 3 consecutive copies of the T7 … (mouse, UniProt Q80WQ6 1-827)); assay: FACS, MEF-DKO-miR2-FL-WT-T7 cells
T1 construct: also called mouse iRhom2 variant expressed by MEF-DKO-miR2-FL-WT-T7 cells
T1 sequence: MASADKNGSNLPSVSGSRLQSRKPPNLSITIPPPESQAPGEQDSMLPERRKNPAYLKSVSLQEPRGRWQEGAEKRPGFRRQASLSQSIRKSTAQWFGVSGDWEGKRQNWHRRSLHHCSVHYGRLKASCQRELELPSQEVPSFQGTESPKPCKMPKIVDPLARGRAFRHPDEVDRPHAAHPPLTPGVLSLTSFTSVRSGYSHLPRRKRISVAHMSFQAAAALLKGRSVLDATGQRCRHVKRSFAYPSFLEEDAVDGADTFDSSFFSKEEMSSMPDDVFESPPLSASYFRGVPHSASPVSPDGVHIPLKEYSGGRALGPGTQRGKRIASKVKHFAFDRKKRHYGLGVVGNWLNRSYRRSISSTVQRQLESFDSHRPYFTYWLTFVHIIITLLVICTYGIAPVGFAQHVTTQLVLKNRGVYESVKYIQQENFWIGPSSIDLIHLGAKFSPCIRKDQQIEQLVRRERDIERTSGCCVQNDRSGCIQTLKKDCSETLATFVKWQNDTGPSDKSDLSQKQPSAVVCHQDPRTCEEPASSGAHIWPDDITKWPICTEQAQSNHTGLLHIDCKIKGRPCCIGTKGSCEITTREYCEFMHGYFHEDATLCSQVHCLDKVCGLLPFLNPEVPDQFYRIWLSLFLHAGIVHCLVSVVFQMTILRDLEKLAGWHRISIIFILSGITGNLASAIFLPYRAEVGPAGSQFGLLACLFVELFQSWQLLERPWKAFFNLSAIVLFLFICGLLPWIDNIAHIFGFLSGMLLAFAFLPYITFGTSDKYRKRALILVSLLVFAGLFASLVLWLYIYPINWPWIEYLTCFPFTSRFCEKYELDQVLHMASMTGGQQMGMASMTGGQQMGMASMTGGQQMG
Description: In brief, immortalized MEF-DKO-EV control cells, MEF-DKO-hiR2-FL-WT-T7 cells and MEF-DKO-miR2-FL-WT-T7 cells were harvested with 10 mM EDTA in PBS, washed and resuspended in FACS buffer (PBS, 3% FBS, 0.05% sodium azide), and seeded in Nunc U-bottom 96-well plates (Thermo Fisher Scientific, USA) at approximately 3×10⁵ cells per well. To pellet cells and remove supernatants, the plates were centrifuged at 1,500 rpm and 4° C. for 3 minutes. For primary staining, cells were resuspended in 100 μl per well of either FACS buffer alone (controls), mouse monoclonal anti-T7 IgG (Merck Millipore, USA) at 3 μg/ml FACS buffer or the purified antibodies 3, 5, 16, 22, 34, 42, 43, 44, 48, and 50 of the present disclosure also at 3 μg/ml FACS buffer and incubated on ice for 1 hour. Afterwards, plates were centrifuged at 1,500 rpm and 4° C. for 3 minutes and washed twice with 200 μl per well of FACS buffer. For secondary staining, cells were spun down and resuspended in 100 μl per well of PE-conjugated goat anti-mouse IgG F(ab′)2 detection fragment (Dianova, Germany) diluted 1:100 in FACS buffer. Protected from light, the cell suspensions were incubated on ice for 1 hour. […] Finally, cells were resuspended in 150 μl per well of FACS buffer and analyzed using a BD Accuri™ C6 Plus flow cytometer (Becton Dickinson, Germany).

[2] = target: T1, miR2-FL-WT-T7 (mouse iRhom2 full length …); assay: FACS on MEF-DKO-miR2-FL-WT-T7 cells
[3] = target: T2, hiR2-FL-I566E-T7 (human iRhom2 full length I566E, 3 x T7 tag) (human, UniProt Q6PJF5 1-856); assay: FACS on MEF-DKO-hiR2-FL-I566E-T7 cells
T2 sequence: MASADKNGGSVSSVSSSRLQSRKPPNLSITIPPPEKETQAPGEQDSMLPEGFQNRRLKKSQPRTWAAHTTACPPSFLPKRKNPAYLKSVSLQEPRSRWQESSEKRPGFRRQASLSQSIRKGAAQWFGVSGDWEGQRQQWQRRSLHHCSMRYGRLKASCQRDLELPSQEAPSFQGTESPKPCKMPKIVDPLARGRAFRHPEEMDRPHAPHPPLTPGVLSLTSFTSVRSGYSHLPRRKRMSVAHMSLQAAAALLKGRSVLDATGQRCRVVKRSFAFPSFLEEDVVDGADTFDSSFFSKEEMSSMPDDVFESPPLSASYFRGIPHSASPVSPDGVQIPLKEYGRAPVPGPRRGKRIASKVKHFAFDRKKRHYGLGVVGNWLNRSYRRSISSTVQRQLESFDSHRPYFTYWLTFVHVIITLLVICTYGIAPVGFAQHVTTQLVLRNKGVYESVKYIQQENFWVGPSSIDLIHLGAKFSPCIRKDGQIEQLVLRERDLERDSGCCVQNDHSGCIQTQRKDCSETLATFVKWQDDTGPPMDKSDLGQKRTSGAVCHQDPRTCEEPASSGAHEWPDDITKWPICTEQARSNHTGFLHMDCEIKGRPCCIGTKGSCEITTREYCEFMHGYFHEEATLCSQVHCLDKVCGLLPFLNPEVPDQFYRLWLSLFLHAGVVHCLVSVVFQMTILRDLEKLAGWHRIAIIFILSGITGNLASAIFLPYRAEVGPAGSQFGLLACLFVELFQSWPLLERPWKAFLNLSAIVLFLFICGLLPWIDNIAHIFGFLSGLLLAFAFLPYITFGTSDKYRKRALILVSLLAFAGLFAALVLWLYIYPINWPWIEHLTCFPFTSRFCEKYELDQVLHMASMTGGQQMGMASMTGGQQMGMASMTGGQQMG

B1: antibody 48 (antibody, V domains shown)
VH: QVQLQQSGTELVRPGTSVKVSCKASGYAFTNYLIEWVKQRPGQGLEWIGVINPGSGFTKYNEKFKGKATLTADKSSSTVYMHLSSLTSEDSAVYFCARGLYRAMDYWGQGTSVTVSS
VL: DIQMTQSPASQSASLGESVTITCLASQTIATWLAWYQQKPGKSPQLLIYGATTLADGVPSRFSGGGSGTKFSFKISSLQAEDFVSYYCQQLYSTPYTFGGGTKLEIK
notes: Mouse IgG, kappa light chain; also called clone #48; purified antibody 48
B1: no binding (tested: 3 µg/ml) [1].

B2: antibody 3 (antibody, V domains shown)
VH: QVTLKESGPGILQPSQTLSLTCSFSGFSLTTFAMGIGWVRQPSGKGLEWLAHIWWDGEKYNNPVLKSRLTISKDTSKNQVFLRIANVDTPDTATYYCARISSIYYIIDNWGQGTSVTVSS
VL: DIVLTQSPATLSVTPGHSVSLSCRASQSISNNLHWYQKKSHESPRLLIKYVSQSISGIPSRFSGSGSGTDFTLSINSVETEDFGMYFCQQSYNWPLTFGAGTKLELK
notes: Mouse IgG, kappa light chain; also called clone #3; purified antibody 3
B2: no binding (tested: 3 µg/ml) [2].

B3: antibody 5 (antibody, V domains shown)
VH: QVTLKESGPGILQPSQTLSLTCSFSGFSLSTFGMGVGWIRQPSGKGLEWLAHIWWDDEKYYNSALKSRLTISKATSKNQAFLKIANVDTADTATYYCARISNYGSNYWYFNVWGTGTTVTVSS
VL: QVVLTQSPALMSASPGEKVTMTCSAGSSVSCMYWYQQKPGSSPRVLIYDTSNLASGVPARFTGSGSGTSYSLTISRMEAEDAASYYCQQWNSYPLTFGAGTKLELK
notes: Mouse IgG, kappa light chain; also called clone #5; purified antibody 5
B3: no binding (tested: 3 µg/ml) [3].
